Source: PMC9482650, “Quantitative fragmentomics allow affinity mapping of interactomes” (Nature Communications, 2022)

T1: GRIP1_2, Q9Y3R0
T1 sequence (Q9Y3R0 145-248, limits assumed, looked up): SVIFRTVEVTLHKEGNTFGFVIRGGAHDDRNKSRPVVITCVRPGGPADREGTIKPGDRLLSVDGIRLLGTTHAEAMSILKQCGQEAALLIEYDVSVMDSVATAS

T2: DFNB31_3, Q9P202
T2 sequence (Q9P202 811-907, limits assumed, looked up): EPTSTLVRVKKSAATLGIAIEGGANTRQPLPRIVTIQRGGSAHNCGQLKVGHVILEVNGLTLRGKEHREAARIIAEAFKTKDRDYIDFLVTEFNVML

T3: APBA2_1, Q99767
T3 sequence (Q99767 563-664, limits assumed, looked up): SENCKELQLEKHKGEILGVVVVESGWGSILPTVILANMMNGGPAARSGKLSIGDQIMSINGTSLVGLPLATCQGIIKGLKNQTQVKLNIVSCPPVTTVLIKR

T4: PTPN13_1, Q12923
T4 sequence (Q12923 1088-1188, limits assumed, looked up): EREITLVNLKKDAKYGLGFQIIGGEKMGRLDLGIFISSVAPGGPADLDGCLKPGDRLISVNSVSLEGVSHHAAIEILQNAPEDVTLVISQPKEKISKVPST

T5: RHPN1, Q8TCX5
T5 sequence (Q8TCX5 508-602, limits assumed, looked up): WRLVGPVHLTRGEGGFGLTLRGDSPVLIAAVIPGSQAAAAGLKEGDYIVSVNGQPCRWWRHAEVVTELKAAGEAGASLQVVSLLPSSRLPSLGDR

T6: PDZD2_2, O15018
T6 sequence (O15018 329-429, limits assumed, looked up): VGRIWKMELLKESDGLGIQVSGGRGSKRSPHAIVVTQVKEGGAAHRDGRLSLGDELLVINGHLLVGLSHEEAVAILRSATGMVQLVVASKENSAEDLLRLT

T7: RAPGEF6, Q8TEU7
T7 sequence (Q8TEU7 525-625, limits assumed, looked up): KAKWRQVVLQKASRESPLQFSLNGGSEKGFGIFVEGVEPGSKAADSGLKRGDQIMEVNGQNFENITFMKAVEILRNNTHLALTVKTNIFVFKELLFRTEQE

T8: MPDZ_5, O75970
T8 sequence (O75970 695-796, limits assumed, looked up): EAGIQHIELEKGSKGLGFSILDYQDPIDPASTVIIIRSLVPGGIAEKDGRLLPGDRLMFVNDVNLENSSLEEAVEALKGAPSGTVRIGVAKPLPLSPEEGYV

T9: LNX2_3, Q8N448
T9 sequence (Q8N448 463-564, limits assumed, looked up): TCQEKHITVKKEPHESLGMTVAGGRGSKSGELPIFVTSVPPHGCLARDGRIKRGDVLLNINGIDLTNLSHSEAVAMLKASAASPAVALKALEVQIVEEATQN

T10: FRMPD1, Q5SYB0
T10 sequence (Q5SYB0 52-145, limits assumed, looked up): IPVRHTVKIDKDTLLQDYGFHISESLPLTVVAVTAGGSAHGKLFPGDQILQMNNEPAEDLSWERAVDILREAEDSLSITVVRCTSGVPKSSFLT

T11: MPDZ_12, O75970
T11 sequence (O75970 1857-1958, limits assumed, looked up): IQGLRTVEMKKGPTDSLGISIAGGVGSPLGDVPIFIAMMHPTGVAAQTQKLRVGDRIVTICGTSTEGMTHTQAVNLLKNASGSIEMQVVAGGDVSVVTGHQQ

T12: DLG3_3, Q92796
T12 sequence (Q92796 374-475, limits assumed, looked up): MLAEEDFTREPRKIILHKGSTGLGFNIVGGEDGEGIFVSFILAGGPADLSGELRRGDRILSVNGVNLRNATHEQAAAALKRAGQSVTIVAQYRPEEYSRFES


Target: HTRA2, O43464
Test: holdup assay
Set-up: key: below the threshold = too weak to quantify, mostly under pKd 3.1 to 4
Settings: plain residues with an end cap or a label only (N-terminal biotin on a linker: ado-ado)

Sequence of HTRA2, O43464 (O43464 355-458): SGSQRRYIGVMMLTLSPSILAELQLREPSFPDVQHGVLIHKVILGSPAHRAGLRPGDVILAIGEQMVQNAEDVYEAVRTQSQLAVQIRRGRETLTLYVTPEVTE

pKd	Binder
below the threshold	EKKTLIGIKL [GOT1L1, Q8NHS2]

Target: FRMPD2_3, Q68DX3
Test: holdup assay
Set-up: key: below the threshold = too weak to quantify, mostly under pKd 3.1 to 4
Settings: plain residues with an end cap or a label only (N-terminal biotin on a linker: ado-ado)

Sequence of FRMPD2_3, Q68DX3 (Q68DX3 1073-1166): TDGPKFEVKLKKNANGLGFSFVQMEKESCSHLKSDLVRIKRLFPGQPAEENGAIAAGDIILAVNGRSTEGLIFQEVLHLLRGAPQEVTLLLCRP

pKd	Binder
below the threshold	EKKTLIGIKL [GOT1L1, Q8NHS2]

Target: GRIP2_7, Q9C0E4
Test: holdup assay
Set-up: key: below the threshold = too weak to quantify, mostly under pKd 3.1 to 4
Settings: plain residues with an end cap or a label only (N-terminal biotin on a linker: ado-ado)

Sequence of GRIP2_7, Q9C0E4 (Q9C0E4 934-1023): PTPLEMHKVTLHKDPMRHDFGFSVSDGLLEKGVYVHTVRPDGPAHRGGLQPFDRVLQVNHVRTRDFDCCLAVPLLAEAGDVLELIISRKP

pKd	Binder
below the threshold	EKKTLIGIKL [GOT1L1, Q8NHS2]

Target: T1, GRIP1_2, Q9Y3R0
Test: holdup assay
Set-up: key: below the threshold = too weak to quantify, mostly under pKd 3.1 to 4
Settings: plain residues with an end cap or a label only (N-terminal biotin on a linker: ado-ado)

pKd	Binder
below the threshold	EKKTLIGIKL [GOT1L1, Q8NHS2]

Target: SNX27, Q96L92
Test: holdup assay
Set-up: key: below the threshold = too weak to quantify, mostly under pKd 3.1 to 4
Settings: plain residues with an end cap or a label only (N-terminal biotin on a linker: ado-ado)

pKd	Binder
below the threshold	EKKTLIGIKL [GOT1L1, Q8NHS2]

Target: T2, DFNB31_3, Q9P202
Test: holdup assay
Set-up: key: below the threshold = too weak to quantify, mostly under pKd 3.1 to 4
Settings: plain residues with an end cap or a label only (N-terminal biotin on a linker: ado-ado)

pKd	Binder
4.02	EKKTLIGIKL [GOT1L1, Q8NHS2]

Target: T3, APBA2_1, Q99767
Test: holdup assay
Set-up: key: below the threshold = too weak to quantify, mostly under pKd 3.1 to 4
Settings: plain residues with an end cap or a label only (N-terminal biotin on a linker: ado-ado)

pKd	Binder
below the threshold	EKKTLIGIKL [GOT1L1, Q8NHS2]

Target: T4, PTPN13_1, Q12923
Test: holdup assay
Set-up: key: below the threshold = too weak to quantify, mostly under pKd 3.1 to 4
Settings: plain residues with an end cap or a label only (N-terminal biotin on a linker: ado-ado)

pKd	Binder
3.63	EKKTLIGIKL [GOT1L1, Q8NHS2]

Target: LNX1_2, Q8TBB1
Test: holdup assay
Set-up: key: below the threshold = too weak to quantify, mostly under pKd 3.1 to 4
Settings: plain residues with an end cap or a label only (N-terminal biotin on a linker: ado-ado)

Sequence of LNX1_2, Q8TBB1 (Q8TBB1 371-470): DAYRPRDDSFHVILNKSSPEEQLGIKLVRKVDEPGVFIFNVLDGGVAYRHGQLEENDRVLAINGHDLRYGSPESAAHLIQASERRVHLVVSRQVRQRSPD

pKd	Binder
below the threshold	EKKTLIGIKL [GOT1L1, Q8NHS2]

Target: T5, RHPN1, Q8TCX5
Test: holdup assay
Set-up: key: below the threshold = too weak to quantify, mostly under pKd 3.1 to 4
Settings: plain residues with an end cap or a label only (N-terminal biotin on a linker: ado-ado)

pKd	Binder
below the threshold	EKKTLIGIKL [GOT1L1, Q8NHS2]

Target: NOS1, P29475
Test: holdup assay
Set-up: key: below the threshold = too weak to quantify, mostly under pKd 3.1 to 4
Settings: plain residues with an end cap or a label only (N-terminal biotin on a linker: ado-ado)

Sequence of NOS1, P29475 (P29475 9-101): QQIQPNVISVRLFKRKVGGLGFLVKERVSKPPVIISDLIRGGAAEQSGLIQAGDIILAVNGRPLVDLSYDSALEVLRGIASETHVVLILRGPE

pKd	Binder
3.56	EKKTLIGIKL [GOT1L1, Q8NHS2]

Target: T6, PDZD2_2, O15018
Test: holdup assay
Set-up: key: below the threshold = too weak to quantify, mostly under pKd 3.1 to 4
Settings: plain residues with an end cap or a label only (N-terminal biotin on a linker: ado-ado)

pKd	Binder
below the threshold	EKKTLIGIKL [GOT1L1, Q8NHS2]

Target: T7, RAPGEF6, Q8TEU7
Test: holdup assay
Set-up: key: below the threshold = too weak to quantify, mostly under pKd 3.1 to 4
Settings: plain residues with an end cap or a label only (N-terminal biotin on a linker: ado-ado)

pKd	Binder
below the threshold	EKKTLIGIKL [GOT1L1, Q8NHS2]

Target: NHERF4_1, Q86UT5-2
Test: holdup assay
Set-up: key: below the threshold = too weak to quantify, mostly under pKd 3.1 to 4
Settings: plain residues with an end cap or a label only (N-terminal biotin on a linker: ado-ado)

Sequence of NHERF4_1, Q86UT5-2 (Q86UT5 other isoform, or with tags, fused parts or gaps): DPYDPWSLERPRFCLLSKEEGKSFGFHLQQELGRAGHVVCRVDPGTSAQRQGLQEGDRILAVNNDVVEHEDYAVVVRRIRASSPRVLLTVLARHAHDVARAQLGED

pKd	Binder
3.81	EKKTLIGIKL [GOT1L1, Q8NHS2]

Target: DLG2_2, Q15700
Test: holdup assay
Set-up: key: below the threshold = too weak to quantify, mostly under pKd 3.1 to 4
Settings: plain residues with an end cap or a label only (N-terminal biotin on a linker: ado-ado)

Sequence of DLG2_2, Q15700 (Q15700 189-283): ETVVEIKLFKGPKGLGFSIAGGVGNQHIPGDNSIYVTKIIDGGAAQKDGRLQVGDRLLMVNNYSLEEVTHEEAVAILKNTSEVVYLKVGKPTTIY

pKd	Binder
below the threshold	EKKTLIGIKL [GOT1L1, Q8NHS2]

Target: AHNAK1, Q09666
Test: holdup assay
Set-up: key: below the threshold = too weak to quantify, mostly under pKd 3.1 to 4
Settings: plain residues with an end cap or a label only (N-terminal biotin on a linker: ado-ado)

Sequence of AHNAK1, Q09666 (Q09666 4-100): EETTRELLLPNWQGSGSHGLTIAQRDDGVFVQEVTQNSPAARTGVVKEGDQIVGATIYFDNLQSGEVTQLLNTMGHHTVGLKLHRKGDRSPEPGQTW

pKd	Binder
below the threshold	EKKTLIGIKL [GOT1L1, Q8NHS2]

Target: T8, MPDZ_5, O75970
Test: holdup assay
Set-up: key: below the threshold = too weak to quantify, mostly under pKd 3.1 to 4
Settings: plain residues with an end cap or a label only (N-terminal biotin on a linker: ado-ado)

pKd	Binder
below the threshold	EKKTLIGIKL [GOT1L1, Q8NHS2]

Target: Inadl_8, Q8NI35
Test: holdup assay
Set-up: key: below the threshold = too weak to quantify, mostly under pKd 3.1 to 4
Settings: plain residues with an end cap or a label only (N-terminal biotin on a linker: ado-ado)

Sequence of Inadl_8, Q8NI35 (Q8NI35 1425-1530): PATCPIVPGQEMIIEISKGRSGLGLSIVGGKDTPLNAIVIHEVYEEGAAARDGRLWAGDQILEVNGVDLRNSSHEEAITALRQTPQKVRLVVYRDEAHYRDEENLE

pKd	Binder
below the threshold	EKKTLIGIKL [GOT1L1, Q8NHS2]

Target: T9, LNX2_3, Q8N448
Test: holdup assay
Set-up: key: below the threshold = too weak to quantify, mostly under pKd 3.1 to 4
Settings: plain residues with an end cap or a label only (N-terminal biotin on a linker: ado-ado)

pKd	Binder
below the threshold	EKKTLIGIKL [GOT1L1, Q8NHS2]

Target: MAGI2_2, Q86UL8
Test: holdup assay
Set-up: key: below the threshold = too weak to quantify, mostly under pKd 3.1 to 4
Settings: plain residues with an end cap or a label only (N-terminal biotin on a linker: ado-ado)

Sequence of MAGI2_2, Q86UL8 (Q86UL8 410-522): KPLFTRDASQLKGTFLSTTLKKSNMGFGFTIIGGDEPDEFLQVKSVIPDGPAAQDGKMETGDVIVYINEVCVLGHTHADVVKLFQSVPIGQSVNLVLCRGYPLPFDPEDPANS

pKd	Binder
3.52	EKKTLIGIKL [GOT1L1, Q8NHS2]

Target: T10, FRMPD1, Q5SYB0
Test: holdup assay
Set-up: key: below the threshold = too weak to quantify, mostly under pKd 3.1 to 4
Settings: plain residues with an end cap or a label only (N-terminal biotin on a linker: ado-ado)

pKd	Binder
below the threshold	EKKTLIGIKL [GOT1L1, Q8NHS2]

Target: T11, MPDZ_12, O75970
Test: holdup assay
Set-up: key: below the threshold = too weak to quantify, mostly under pKd 3.1 to 4
Settings: plain residues with an end cap or a label only (N-terminal biotin on a linker: ado-ado)

pKd	Binder
below the threshold	EKKTLIGIKL [GOT1L1, Q8NHS2]

Target: GRIP2_3, Q9C0E4
Test: holdup assay
Set-up: key: below the threshold = too weak to quantify, mostly under pKd 3.1 to 4
Settings: plain residues with an end cap or a label only (N-terminal biotin on a linker: ado-ado)

Sequence of GRIP2_3, Q9C0E4 (Q9C0E4 238-339): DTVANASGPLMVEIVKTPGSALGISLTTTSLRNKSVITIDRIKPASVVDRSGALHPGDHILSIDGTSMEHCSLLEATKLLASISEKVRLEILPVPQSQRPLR

pKd	Binder
below the threshold	EKKTLIGIKL [GOT1L1, Q8NHS2]

Target: T12, DLG3_3, Q92796
Test: holdup assay
Set-up: key: below the threshold = too weak to quantify, mostly under pKd 3.1 to 4
Settings: plain residues with an end cap or a label only (N-terminal biotin on a linker: ado-ado)

pKd	Binder
below the threshold	EKKTLIGIKL [GOT1L1, Q8NHS2]
